The values that follow come from article PMC314469, “Protein Interaction Networks by Proteome Peptide Scanning” (PLoS Biology, 2004).

T1: Boi1 SH3 (BOI1_YEAST), P38041
T1 chain: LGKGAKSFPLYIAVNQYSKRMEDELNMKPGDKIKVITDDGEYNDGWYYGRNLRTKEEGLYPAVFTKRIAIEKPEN

T2: Boi2 SH3 (BOI2_YEAST), P39969
T2 chain: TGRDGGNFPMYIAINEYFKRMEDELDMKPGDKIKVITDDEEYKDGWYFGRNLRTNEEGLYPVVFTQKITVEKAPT

T3: Rvs167 SH3 (RV167_YEAST), P39743
T3 chain: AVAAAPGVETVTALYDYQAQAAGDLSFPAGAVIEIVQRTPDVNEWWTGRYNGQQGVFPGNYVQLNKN

T4: Yfr024 SH3 (LSB3_YEAST), P43603
T4 chain: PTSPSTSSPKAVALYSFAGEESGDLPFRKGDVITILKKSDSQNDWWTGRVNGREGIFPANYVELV

T5: Yhr016c SH3 (YSC84_YEAST), P32793
T5 chain: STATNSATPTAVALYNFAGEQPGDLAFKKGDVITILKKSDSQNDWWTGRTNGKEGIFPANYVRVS

The target of the first assay is T1, Boi1 SH3 (BOI1_YEAST), P38041. Put plainly: SPOT array.
Consider NSMPNVPVRLKLHT [YKL208W 152-165], for which the normalised SPOT signal, Boehringer light units (BLU); mean over the file's lines of this peptide came out at 5300.
Same read-out and setting: the same measure for NPPPVPPPRNVTAM [YNL176C 548-561]: 180; for NSPPTTPSKDESGP [YMR190C 45-58]: 43.4.
Same read-out and setting: to NRKPAEPTKPNNLD [YML075C 1024-1037] belongs 51.4; to NNNPVPPQKINQPP [YDL203C 198-211], 21.2.
NSSPMSPLKEKYVL [YOR299W 430-443] yielded a normalised SPOT signal, Boehringer light units (BLU); mean over the file's lines of this peptide of 42.6.
The same measure, in the same setting: the same measure for NNGPKIPQKNTIDS [YKR029C 581-594]: 44.6; for NYAPRLPRRETSSS [YIL061C 231-244]: 3860; for NVQPRKPSRVHSRN [YFR022W 634-647]: 899.
The same measure, in the same setting: the same measure for NSRPQQPERRRFNS [YOR042W 296-309]: 7150.
On the same count and under the same terms, the same measure for NNAPTLPKRKNPKI [YPR055W 477-490]: 2740.
The molecule NWSPNIPLRYSDFA [YOL017W 129-142] registered a normalised SPOT signal, Boehringer light units (BLU); mean over the file's lines of this peptide of 1070.
The same measure, in the same setting: to NSLPSSPKKQPARN [YCL063W 173-186] belongs 57.1; to NSPPVYPKRIRHFE [YDR061W 22-35], 8630.
On the same count and under the same terms, to NQAPLEPLKPTATG [YIR006C 229-242] belongs 115; to NVDPASPWRHELLS [YGL107C 76-89], 72.9; to NSNPIDPLRSDRSV [YNL144C 502-515], 274.
Same read-out and setting: the same measure for NNTPIVPEKFSNDL [YKR004C 249-262]: 69.3; for NTVPSTPSRSNSVL [YKL038W 137-150]: 45.3.

For a further assay, the target named is T2, Boi2 SH3 (BOI2_YEAST), P39969. Put plainly: SPOT array.
Take NSMPNVPVRLKLHT [YKL208W 152-165]: the normalised SPOT signal, Boehringer light units (BLU); mean over the file's lines of this peptide is 2750.
Still for that read-out and setting: the same measure for NPPPVPPPRNVTAM [YNL176C 548-561]: 42.3.
Still for that read-out and setting: to NSPPTTPSKDESGP [YMR190C 45-58] belongs 29.9; to NRKPAEPTKPNNLD [YML075C 1024-1037], 96.2; to NNNPVPPQKINQPP [YDL203C 198-211], 43.4.
Still for that read-out and setting: the same measure for NSSPMSPLKEKYVL [YOR299W 430-443]: 65.1.
Molecule NNGPKIPQKNTIDS [YKR029C 581-594] returned a normalised SPOT signal, Boehringer light units (BLU); mean over the file's lines of this peptide of 27.3.
Same read-out and setting: the same measure for NYAPRLPRRETSSS [YIL061C 231-244]: 4640; for NVQPRKPSRVHSRN [YFR022W 634-647]: 1310.
Same read-out and setting: to NSRPQQPERRRFNS [YOR042W 296-309] belongs 2470.
The same measure, in the same setting: to NNAPTLPKRKNPKI [YPR055W 477-490] belongs 62.5; to NWSPNIPLRYSDFA [YOL017W 129-142], 574; to NSLPSSPKKQPARN [YCL063W 173-186], 31.8.
For the molecule NSPPVYPKRIRHFE [YDR061W 22-35], the normalised SPOT signal, Boehringer light units (BLU); mean over the file's lines of this peptide came to 3110.
On the same count and under the same terms, the same measure for NQAPLEPLKPTATG [YIR006C 229-242]: 14.5; for NVDPASPWRHELLS [YGL107C 76-89]: 8.5.
Still for that read-out and setting: to NSNPIDPLRSDRSV [YNL144C 502-515] belongs 45.3.
Same read-out and setting: the same measure for NNTPIVPEKFSNDL [YKR004C 249-262]: 27.9; for NTVPSTPSRSNSVL [YKL038W 137-150]: 46.6.

A further assay deals with T3, Rvs167 SH3 (RV167_YEAST), P39743. Put plainly: SPOT array.
On to NSMPNVPVRLKLHT [YKL208W 152-165], for which the normalised SPOT signal, Boehringer light units (BLU); mean over the file's lines of this peptide is 2480.
NPPPVPPPRNVTAM [YNL176C 548-561] came in with a normalised SPOT signal, Boehringer light units (BLU); mean over the file's lines of this peptide of 1190.
The molecule NSPPTTPSKDESGP [YMR190C 45-58] displayed a normalised SPOT signal, Boehringer light units (BLU); mean over the file's lines of this peptide of 40.1.
On the same count and under the same terms, to NRKPAEPTKPNNLD [YML075C 1024-1037] belongs 91.3; to NNNPVPPQKINQPP [YDL203C 198-211], 46.9; to NSSPMSPLKEKYVL [YOR299W 430-443], 69.2.
In the case of NNGPKIPQKNTIDS [YKR029C 581-594], the normalised SPOT signal, Boehringer light units (BLU); mean over the file's lines of this peptide is 26.5.
On the same count and under the same terms, to NYAPRLPRRETSSS [YIL061C 231-244] belongs 28000.
Still for that read-out and setting: to NVQPRKPSRVHSRN [YFR022W 634-647] belongs 1900; to NSRPQQPERRRFNS [YOR042W 296-309], 3880; to NNAPTLPKRKNPKI [YPR055W 477-490], 19800.
The same measure, in the same setting: to NWSPNIPLRYSDFA [YOL017W 129-142] belongs 189; to NSLPSSPKKQPARN [YCL063W 173-186], 211; to NSPPVYPKRIRHFE [YDR061W 22-35], 3590.
Molecule NQAPLEPLKPTATG [YIR006C 229-242] came in with a normalised SPOT signal, Boehringer light units (BLU); mean over the file's lines of this peptide of 37.7.
NVDPASPWRHELLS [YGL107C 76-89] gave a normalised SPOT signal, Boehringer light units (BLU); mean over the file's lines of this peptide of 33.4.
The same measure, in the same setting: to NSNPIDPLRSDRSV [YNL144C 502-515] belongs 22.8; to NNTPIVPEKFSNDL [YKR004C 249-262], 3.8; to NTVPSTPSRSNSVL [YKL038W 137-150], 387.

For a further assay, the target named is T4, Yfr024 SH3 (LSB3_YEAST), P43603. Put plainly: SPOT array.
NSMPNVPVRLKLHT [YKL208W 152-165] displayed a normalised SPOT signal, Boehringer light units (BLU); mean over the file's lines of this peptide of 20400.
Still for that read-out and setting: to NPPPVPPPRNVTAM [YNL176C 548-561] belongs 14200; to NSPPTTPSKDESGP [YMR190C 45-58], 101; to NRKPAEPTKPNNLD [YML075C 1024-1037], 292.
NNNPVPPQKINQPP [YDL203C 198-211] gave a normalised SPOT signal, Boehringer light units (BLU); mean over the file's lines of this peptide of 212.
NSSPMSPLKEKYVL [YOR299W 430-443] displayed a normalised SPOT signal, Boehringer light units (BLU); mean over the file's lines of this peptide of 282.
The same measure, in the same setting: the same measure for NNGPKIPQKNTIDS [YKR029C 581-594]: 424; for NYAPRLPRRETSSS [YIL061C 231-244]: 29100.
NVQPRKPSRVHSRN [YFR022W 634-647] returned a normalised SPOT signal, Boehringer light units (BLU); mean over the file's lines of this peptide of 19900.
For the molecule NSRPQQPERRRFNS [YOR042W 296-309], the normalised SPOT signal, Boehringer light units (BLU); mean over the file's lines of this peptide came out at 40900.
Same read-out and setting: the same measure for NNAPTLPKRKNPKI [YPR055W 477-490]: 40800; for NWSPNIPLRYSDFA [YOL017W 129-142]: 3720.
Same read-out and setting: the same measure for NSLPSSPKKQPARN [YCL063W 173-186]: 331; for NSPPVYPKRIRHFE [YDR061W 22-35]: 23100.
The molecule NQAPLEPLKPTATG [YIR006C 229-242] had a normalised SPOT signal, Boehringer light units (BLU); mean over the file's lines of this peptide of 25.1.
On the same count and under the same terms, the same measure for NVDPASPWRHELLS [YGL107C 76-89]: 63.
Molecule NSNPIDPLRSDRSV [YNL144C 502-515] gave a normalised SPOT signal, Boehringer light units (BLU); mean over the file's lines of this peptide of 301.
On the same count and under the same terms, the same measure for NNTPIVPEKFSNDL [YKR004C 249-262]: 194.
Take NTVPSTPSRSNSVL [YKL038W 137-150]: the normalised SPOT signal, Boehringer light units (BLU); mean over the file's lines of this peptide turned out to be 26300.

A further assay addresses T5, Yhr016c SH3 (YSC84_YEAST), P32793. Put plainly: SPOT array.
On to NSMPNVPVRLKLHT [YKL208W 152-165], for which the normalised SPOT signal, Boehringer light units (BLU); mean over the file's lines of this peptide was 11000.
Still for that read-out and setting: the same measure for NPPPVPPPRNVTAM [YNL176C 548-561]: 12200; for NSPPTTPSKDESGP [YMR190C 45-58]: 293; for NRKPAEPTKPNNLD [YML075C 1024-1037]: 234.
Still for that read-out and setting: the same measure for NNNPVPPQKINQPP [YDL203C 198-211]: 20.2.
On the same count and under the same terms, to NSSPMSPLKEKYVL [YOR299W 430-443] belongs 442.
The molecule NNGPKIPQKNTIDS [YKR029C 581-594] showed a normalised SPOT signal, Boehringer light units (BLU); mean over the file's lines of this peptide of 74.1.
In turn, NYAPRLPRRETSSS [YIL061C 231-244] gave a normalised SPOT signal, Boehringer light units (BLU); mean over the file's lines of this peptide of 50300.
The same measure, in the same setting: to NVQPRKPSRVHSRN [YFR022W 634-647] belongs 5260; to NSRPQQPERRRFNS [YOR042W 296-309], 14500; to NNAPTLPKRKNPKI [YPR055W 477-490], 45600.
The same measure, in the same setting: the same measure for NWSPNIPLRYSDFA [YOL017W 129-142]: 1410; for NSLPSSPKKQPARN [YCL063W 173-186]: 199; for NSPPVYPKRIRHFE [YDR061W 22-35]: 22100.
Still for that read-out and setting: the same measure for NQAPLEPLKPTATG [YIR006C 229-242]: 208; for NVDPASPWRHELLS [YGL107C 76-89]: 271.
In turn, NSNPIDPLRSDRSV [YNL144C 502-515] yielded a normalised SPOT signal, Boehringer light units (BLU); mean over the file's lines of this peptide of 67.7.
Same read-out and setting: the same measure for NNTPIVPEKFSNDL [YKR004C 249-262]: 272; for NTVPSTPSRSNSVL [YKL038W 137-150]: 9290.
